Ends that are not written are not given here. Peptide text beside a SMILES is read from it. * marks the point of attachment. 5TAMRA = CN(C)c1ccc2c(c1)Oc1cc(N(C)C)ccc1C21OC(=O)c2cc(C(=O)*)ccc21
Columns and labels:
[1] = Translocation study based on fluorescence intensity measurement (Transwell, non-contact co-culture with rat astrocytes); type: in vitro ADME, mouse; conditions: mouse; bEnd.3 non-contact co-culture with rat astrocytes, polyester Transwell 0.4 μm; 10 μM apical, 2 h, shaken, apical to basolateral; fluorescence (RFU values) Ex 535/Em 585 nm; mean (SD) of three independent experiments with triplicates; read-out: Papp, bEnd.3+F (apparent permeability through bEnd.3 grown on filter)
Method: (§1) For the translocation studies, an in vitro contact and non-contact co-culture model was used. Forty thousand bEnd.3 cells were seeded on the upper side of the collagen-coated Transwell insert and maintained in cDMEM for 24 hours (contact co-culture) or immediately transferred into a 12-well plate in which rat astrocytes were grown for at least three weeks (non-contact co-culture). In the case of contact co-culture, 24 hours after plating the bEnd.3 approx. 150,000 rat astrocytes were seeded on the bottom side of the flipped Transwell inserts, which was coated with 5 μg/ml poly-L-lysine (P1524, Sigma-Aldrich), and incubated for 2 hours at 37°C. The inserts were then flipped back to the original side and placed into a 12-well plate with rat astrocytes. The cells were cultured in cDMEM at 37°C with 5% CO2/95% air and saturated humidity, and the experiments were performed 4.5–5 days post-seeding of bEnd.3 cells. The medium was switched to phenol red-free cDMEM the day before the experiment.
(§2) These experiments were performed using the bEnd.3 cells that were cultured with rat astrocytes in a non-contact co-culture model and with cell-free filters as negative controls. On the day of the experiment, the inserts were transferred to a new astrocyte-free 12-well plate, and the medium was changed on both the apical and basolateral sides. The apical side of the membrane was exposed to 10 μM MTfp or GYR for 2 hours while the plates were gently shaken to overcome unstirred water-layer effects. After the 2 hours exposure time, 150 μL sample was taken from both apical and basolateral compartments, and the fluorescence intensity was read by a CLARIOstar® Plus microplate reader (BMG Labtech) (λExc = 535 nm, λEm = 585 nm, Bandwidth = 20 and 30 nm, respectively). The translocation of the peptides is presented as permeability coefficient (a concentration independent transport parameter) and was determine by using the clearance principle.
(§3) The following equations [27] were used to calculate the permeability coefficient: Papp[cm/s]=B/T⋅vb/A⋅t⋅60 (1) Where Papp is the apparent permeability, B is the relative fluorescence unit (RFU) at time t, T is the top chamber RFU at time 0 (constant), Vb is the volume of the bottom channel [ml], A is the cross-section area of the membrane [cm^2], and t is the time [min].
(§4) The translocation experiments were performed three times in technical triplicates, and the data are represented as mean (SD).

bEnd.3 cells = assay: as above; type: in vitro ADME, mouse; conditions: for Pe ("real" endothelial permeability): 1/Pe = 1/Papp,bEnd.3+filter − 1/Papp,filter, fluorescence; for Papp,F (apparent permeability through filter): cell-free collagen-coated polyester Transwell filter, 0.4 μm pores, fluorescence Ex 535/Em 585 nm
Method: as §1, §2, §3, §4

[2] = biological target: T1, LRP-1 purified from human placenta (Homo sapiens, UniProt Q07954); assay: SPR binding to immobilized LRP-1 (Biacore 3000, CM5 chip); conditions: unlabeled peptide, 0.25-4 μM, 5 μL/min, 25°C, HEPES buffer pH 7.4, Langmuir 1:1 global fit
T1 construct: LRP-1 was purified from human placenta according to a previously described protocol; from tissue; host or cells: human placenta
Method: (§5) The binding affinity analysis of the MTf and GYR peptides was performed using the Biacore 3000 system (Cytiva, UK) equipped with a CM5 sensor chip. The sensor chip was initially activated by injection of 0.2 M 1-ethyl-3-(3-dimethylaminopropyl) carbodiimide hydrochloride and 0.05 M N-hydroxysuccinimide in water. Recombinant human and mouse TfR protein (SinoBiological, Inc., Beijing, PRC) was purchased with a His-tag and immobilized on the sensor chip at 58 fmol/mm^2. LRP-1 was purified from human placenta according to a previously described protocol and immobilized to densities of 0.025 fmol/mm^2. The remaining carboxylate groups were blocked with 1 M ethanolamine. The MTf and GYR peptides were injected for binding to the immobilized TfR or LRP-1 protein at 5 μL/min at 25°C in 10 mM HEPES, 150 mM NaCl, 1.5 mM CaCl2, 1 mM EGTA, and 0.005% Tween 20 (pH 7.4) at five different concentrations (0.25 μM, 0.5 μM, 1 μM, 2 μM and 4 μM). The reference flow channel (FC1) was activated and blocked but without immobilized TfR or LRP-1. The dissociation constant (KD) values were calculated using the BIAevaluation 4.1 software (Cytiva, UK) using the predefined Langmuir 1:1 interaction model and fitted using a drifting baseline with global fitting to the curves of the considered concentration range.

[3] = biological target: T2, Recombinant mouse TfR protein (mTfR) (Mus musculus, UniProt Q62351); assay: SPR binding to immobilized mouse TfR (Biacore 3000, CM5 chip); conditions: unlabeled peptide, 0.25-4 μM, 25°C, pH 7.4, Langmuir 1:1 global fit
T2 construct: His-tag; purchased SinoBiological, Inc., Beijing, PRC
Method: as §5

[4] = 10 μM apical, 2 h, mean (SD) of three independent experiments with triplicates
[5] = 10 μM apical, 2 h, shaken, apical to basolateral, mean (SD) of three independent experiments with triplicates
[6] = alternative calculation, 10 μM apical, 120 min

T1 sequence (Q07954 20-4544): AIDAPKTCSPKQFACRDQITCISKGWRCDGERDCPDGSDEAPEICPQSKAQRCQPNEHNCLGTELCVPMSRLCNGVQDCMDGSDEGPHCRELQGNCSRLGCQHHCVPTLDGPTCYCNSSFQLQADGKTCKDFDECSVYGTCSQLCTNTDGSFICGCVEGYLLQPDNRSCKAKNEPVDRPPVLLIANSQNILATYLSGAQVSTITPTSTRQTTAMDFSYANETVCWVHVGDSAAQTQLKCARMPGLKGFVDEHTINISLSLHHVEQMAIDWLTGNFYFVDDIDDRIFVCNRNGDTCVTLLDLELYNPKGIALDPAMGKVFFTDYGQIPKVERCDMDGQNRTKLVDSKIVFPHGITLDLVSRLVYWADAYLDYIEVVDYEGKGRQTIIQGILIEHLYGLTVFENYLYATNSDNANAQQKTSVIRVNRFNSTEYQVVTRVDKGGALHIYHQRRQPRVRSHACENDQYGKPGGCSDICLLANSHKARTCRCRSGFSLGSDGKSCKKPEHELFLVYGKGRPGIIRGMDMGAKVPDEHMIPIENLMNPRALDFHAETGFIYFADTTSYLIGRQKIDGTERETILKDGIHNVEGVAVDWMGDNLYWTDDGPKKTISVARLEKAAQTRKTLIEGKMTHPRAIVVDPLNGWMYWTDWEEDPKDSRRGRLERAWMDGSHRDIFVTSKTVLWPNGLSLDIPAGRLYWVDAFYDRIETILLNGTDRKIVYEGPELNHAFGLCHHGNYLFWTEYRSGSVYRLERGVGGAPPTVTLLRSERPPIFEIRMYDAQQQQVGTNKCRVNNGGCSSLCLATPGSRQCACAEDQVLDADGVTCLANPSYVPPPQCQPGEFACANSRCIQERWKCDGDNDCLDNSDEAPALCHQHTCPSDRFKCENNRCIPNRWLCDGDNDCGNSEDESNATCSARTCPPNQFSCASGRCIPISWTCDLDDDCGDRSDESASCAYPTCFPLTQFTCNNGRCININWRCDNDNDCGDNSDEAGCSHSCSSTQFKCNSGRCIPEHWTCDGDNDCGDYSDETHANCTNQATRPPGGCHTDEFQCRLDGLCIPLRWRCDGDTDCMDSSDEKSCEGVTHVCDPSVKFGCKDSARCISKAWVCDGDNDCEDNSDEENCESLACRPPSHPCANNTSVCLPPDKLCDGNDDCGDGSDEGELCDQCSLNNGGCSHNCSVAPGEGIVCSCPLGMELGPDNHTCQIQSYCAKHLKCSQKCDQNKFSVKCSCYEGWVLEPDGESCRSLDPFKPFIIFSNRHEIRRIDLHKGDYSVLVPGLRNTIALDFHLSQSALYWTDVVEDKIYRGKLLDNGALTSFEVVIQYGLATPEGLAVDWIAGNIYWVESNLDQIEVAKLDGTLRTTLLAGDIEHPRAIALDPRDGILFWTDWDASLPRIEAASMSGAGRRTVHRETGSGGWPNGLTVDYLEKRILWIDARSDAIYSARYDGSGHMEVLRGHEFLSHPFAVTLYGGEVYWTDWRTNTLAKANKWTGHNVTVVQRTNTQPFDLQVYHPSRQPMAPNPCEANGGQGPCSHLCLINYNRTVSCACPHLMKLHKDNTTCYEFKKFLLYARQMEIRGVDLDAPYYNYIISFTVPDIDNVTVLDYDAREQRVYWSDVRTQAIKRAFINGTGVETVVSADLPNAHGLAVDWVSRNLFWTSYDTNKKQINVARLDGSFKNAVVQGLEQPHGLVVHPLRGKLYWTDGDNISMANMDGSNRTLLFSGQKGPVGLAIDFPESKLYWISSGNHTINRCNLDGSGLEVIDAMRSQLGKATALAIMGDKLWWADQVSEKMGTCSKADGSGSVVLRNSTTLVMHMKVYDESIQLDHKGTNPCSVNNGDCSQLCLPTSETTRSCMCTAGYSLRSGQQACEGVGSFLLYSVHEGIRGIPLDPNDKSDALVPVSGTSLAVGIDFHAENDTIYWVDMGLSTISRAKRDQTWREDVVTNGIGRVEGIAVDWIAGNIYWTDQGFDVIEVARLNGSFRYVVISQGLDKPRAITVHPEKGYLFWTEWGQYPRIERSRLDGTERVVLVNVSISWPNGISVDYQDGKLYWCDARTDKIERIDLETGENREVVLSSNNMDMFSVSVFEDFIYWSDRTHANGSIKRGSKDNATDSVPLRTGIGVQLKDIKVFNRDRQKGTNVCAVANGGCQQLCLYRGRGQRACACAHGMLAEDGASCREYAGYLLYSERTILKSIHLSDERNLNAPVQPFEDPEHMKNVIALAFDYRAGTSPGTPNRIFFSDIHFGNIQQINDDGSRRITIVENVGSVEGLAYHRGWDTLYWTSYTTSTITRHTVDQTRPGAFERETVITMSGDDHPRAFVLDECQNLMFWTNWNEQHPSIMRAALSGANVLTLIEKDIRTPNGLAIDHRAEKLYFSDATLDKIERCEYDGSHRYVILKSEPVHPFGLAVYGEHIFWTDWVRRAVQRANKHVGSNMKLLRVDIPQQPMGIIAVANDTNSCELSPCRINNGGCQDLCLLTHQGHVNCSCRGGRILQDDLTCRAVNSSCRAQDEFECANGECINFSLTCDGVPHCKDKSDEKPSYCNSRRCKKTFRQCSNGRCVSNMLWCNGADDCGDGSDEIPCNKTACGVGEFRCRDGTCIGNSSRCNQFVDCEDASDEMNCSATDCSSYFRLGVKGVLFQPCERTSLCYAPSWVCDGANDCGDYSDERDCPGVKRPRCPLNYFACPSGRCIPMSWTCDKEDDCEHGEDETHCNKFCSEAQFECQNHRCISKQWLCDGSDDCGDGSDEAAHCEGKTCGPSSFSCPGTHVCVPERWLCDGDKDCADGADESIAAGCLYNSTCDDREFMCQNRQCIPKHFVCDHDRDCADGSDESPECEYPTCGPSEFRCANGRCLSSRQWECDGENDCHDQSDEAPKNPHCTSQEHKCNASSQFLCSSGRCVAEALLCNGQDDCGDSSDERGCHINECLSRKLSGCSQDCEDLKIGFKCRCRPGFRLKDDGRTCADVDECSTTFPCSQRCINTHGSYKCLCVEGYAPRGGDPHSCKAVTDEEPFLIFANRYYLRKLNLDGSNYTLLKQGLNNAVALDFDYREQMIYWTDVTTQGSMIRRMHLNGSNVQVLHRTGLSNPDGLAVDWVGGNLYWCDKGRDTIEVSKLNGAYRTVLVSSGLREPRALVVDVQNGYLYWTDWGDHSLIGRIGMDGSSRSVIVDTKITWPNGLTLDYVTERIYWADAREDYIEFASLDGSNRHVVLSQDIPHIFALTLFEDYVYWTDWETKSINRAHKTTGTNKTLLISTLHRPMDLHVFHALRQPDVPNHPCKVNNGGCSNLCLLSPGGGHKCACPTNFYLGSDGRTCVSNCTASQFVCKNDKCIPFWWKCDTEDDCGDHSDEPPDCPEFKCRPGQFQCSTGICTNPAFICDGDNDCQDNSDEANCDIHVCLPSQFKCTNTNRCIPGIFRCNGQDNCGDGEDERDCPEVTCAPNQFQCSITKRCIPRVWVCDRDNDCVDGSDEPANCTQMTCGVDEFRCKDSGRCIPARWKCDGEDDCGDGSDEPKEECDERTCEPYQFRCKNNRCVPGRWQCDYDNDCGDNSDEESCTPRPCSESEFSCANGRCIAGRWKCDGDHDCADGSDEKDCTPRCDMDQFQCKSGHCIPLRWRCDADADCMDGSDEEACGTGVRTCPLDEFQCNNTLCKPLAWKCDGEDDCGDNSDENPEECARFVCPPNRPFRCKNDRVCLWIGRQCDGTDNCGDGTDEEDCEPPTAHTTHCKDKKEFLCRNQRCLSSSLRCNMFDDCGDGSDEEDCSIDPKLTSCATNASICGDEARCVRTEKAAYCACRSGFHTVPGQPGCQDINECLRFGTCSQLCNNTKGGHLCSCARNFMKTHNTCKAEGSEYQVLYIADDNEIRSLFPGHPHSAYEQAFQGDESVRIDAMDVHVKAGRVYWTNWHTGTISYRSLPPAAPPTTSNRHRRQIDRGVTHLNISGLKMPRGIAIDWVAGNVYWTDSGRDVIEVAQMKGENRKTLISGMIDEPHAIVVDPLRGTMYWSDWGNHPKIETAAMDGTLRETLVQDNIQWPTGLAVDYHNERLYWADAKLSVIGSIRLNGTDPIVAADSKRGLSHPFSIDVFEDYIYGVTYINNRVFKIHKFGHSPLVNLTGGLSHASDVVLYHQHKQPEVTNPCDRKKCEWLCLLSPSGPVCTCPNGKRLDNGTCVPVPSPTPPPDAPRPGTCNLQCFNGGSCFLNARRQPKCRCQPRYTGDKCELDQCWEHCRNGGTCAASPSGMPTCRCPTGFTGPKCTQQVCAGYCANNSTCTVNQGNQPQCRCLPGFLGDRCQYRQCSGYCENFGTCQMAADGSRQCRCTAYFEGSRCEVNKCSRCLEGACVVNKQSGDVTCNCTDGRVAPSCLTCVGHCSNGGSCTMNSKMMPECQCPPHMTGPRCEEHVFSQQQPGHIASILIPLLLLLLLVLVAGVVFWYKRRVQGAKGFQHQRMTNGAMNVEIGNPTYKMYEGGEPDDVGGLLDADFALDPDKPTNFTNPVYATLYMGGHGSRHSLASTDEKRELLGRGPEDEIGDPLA

Kd [2]	Compound	Pe ("real" endothelial permeability) (bEnd.3 cells; [4])	Papp,F (apparent permeability through filter) (bEnd.3 cells; [5])	further results
–	CC[C@H](C)[C@H](NC(=O)[C@H](CCCNC(=N)N)NC(=O)[C@@H](NC(=O)[C@@H](NC(=O)[C@H](Cc1ccccc1)NC(=O)[C@@H]1CCCN1C(=O)[C@@H](NC(=O)[C@H](CC(=O)O)NC(=O)CNC(=O)[C@H](CCCNC(=N)N)NC(=O)[C@H](CC(N)=O)NC(=O)[C@H](CCC(=O)O)NC(=O)[C@@H](NC(=O)[C@H](CC(C)C)NC(=O)[C@H](CS)NC(=O)[C@H](CCCNC(=N)N)NC(=O)[C@H](Cc1ccccc1)NC(=O)c1ccc2c(c1)C(=O)OC21c2ccc(N(C)C)cc2Oc2cc(N(C)C)ccc21)C(C)C)C(C)C)C(C)C)[C@@H](C)O)C(=O)N[C@@H](CCCNC(=N)N)C(N)=O [MTfp-TAMRA] (5TAMRA-FRCLVENRGDVPFVTRIR-NH2)	4.57 (0.64) x 10^−6 cm/s	5.86 (1.27) x 10^−6 cm/s	Papp A→B at 2 h, 10 µM [1]: 2.55 ×10⁻⁶ cm/s
0.00057 µM	FRCLVENRGDVPFVTRIR-NH2 [MTfp]	–	–	–
–	CC[C@H](C)[C@H](NC(=O)[C@H](CC(N)=O)NC(=O)[C@H](Cc1c[nH]cn1)NC(=O)[C@@H](NC(=O)[C@@H]1CCCN1C(=O)[C@H](CCCNC(=N)N)NC(=O)[C@H](Cc1ccc(O)cc1)NC(=O)CN)C(C)C)C(=O)N[C@@H](CCCNC(=N)N)C(=O)NCC(=O)N[C@@H](Cc1c[nH]cn1)C(=O)N[C@@H](Cc1c[nH]c2ccccc12)C(=O)N[C@@H](C)C(=O)N1CCC[C@H]1C(=O)NCC(=O)N[C@@H](CCCCNC(=O)c1ccc2c(c1)C(=O)OC21c2ccc(N(C)C)cc2Oc2cc(N(C)C)ccc21)C(N)=O [GYR-TAMRA] (H-GYRPVHNIRGHWAPGK(5TAMRA)-NH2)	15.17 (1.83) x 10^−6 cm/s	12.82 (3.11) x 10^−6 cm/s	Papp (bEnd.3 + filter), calculated concentrations based on a standard curve (bEnd.3 cells; [6]): 6.71 ×10⁻⁶ cm/s; Papp (bEnd.3 + filter), calculated final basal concentration and the 10 µM initial apical concentration (bEnd.3 cells; [6]): 6.31 ×10⁻⁶ cm/s; Papp, bEnd.3+F (apparent permeability through bEnd.3 grown on filter) (bEnd.3 cells; bEnd.3 non-contact co-culture with rat astrocytes, polyester Transwell 0.4 μm, 10 μM apical, 2 h, shaken, apical to basolateral, fluorescence (RFU values) Ex 535/Em 585 nm, mean (SD) of three independent experiments with triplicates): 6.64 (1.16) x 10^−6 cm/s
0.1 µM	GYRPVHNIRGHWAPGK-NH2 [GYR]	–	–	Remaining peptide most likely trapped inside the filter membrane or in the endothelial cell layer (bEnd.3 cells; 100% minus collected): 1.7%; Kd [3]: 1000 µM

— paper PMC8018780, “Two peptides targeting endothelial receptors are internalized into murine brain endothelial cells” (PLoS ONE, 2021)
